B1: purified DnaD winged helix domain, wild type (B. subtilis, amino acids 1-128) (domain or fragment, UniProt P39787 1-128, looked up)
chain: MKKQQFIDMQEQGTSTIPNLLLTHYKQLGLNETELILLLKIKMHLEKGSYFPTPNQLQEGMSISVEECTNRLRMFIQKGFLFIEECEDQNGIKFEKYSLQPLWGKLYEYIQLAQNQTQERKAEGEQKS

Legend:
[1] = target: the molecule itself; assay: cross-linking
[2] = target: B1; assay: cross-linking

Binder	stoichiometry N [1]	other results
B1	–	binding result [1]: binds
purified DnaD winged helix domain I83A (B. subtilis, amino acids 1-128) (domain or fragment, UniProt P39787 1-128, looked up) MKKQQFIDMQEQGTSTIPNLLLTHYKQLGLNETELILLLKIKMHLEKGSYFPTPNQLQEGMSISVEECTNRLRMFIQKGFLFAEECEDQNGIKFEKYSLQPLWGKLYEYIQLAQNQTQERKAEGEQKS	4	–
purified DnaD winged helix domain F51A (B. subtilis, amino acids 1-128) (domain or fragment, UniProt P39787 1-128, looked up) MKKQQFIDMQEQGTSTIPNLLLTHYKQLGLNETELILLLKIKMHLEKGSYAPTPNQLQEGMSISVEECTNRLRMFIQKGFLFIEECEDQNGIKFEKYSLQPLWGKLYEYIQLAQNQTQERKAEGEQKS	4	–
purified DnaA domain I, wild type (B. subtilis, amino acids 1-82) (domain or fragment, UniProt P05648 1-82, looked up) MENILDLWNQALAQIEKKLSKPSFETWMKSTKAHSLQGDTLTITAPNEFARDWLESRYLHLIADTIYELTGEELSIKFVIPQ	–	binding result [2]: binds

Source: article PMC6351176 (Molecular microbiology, 2018)
